# Reference: the Human Domainome abundance scans (Beltran et al. 2025)
# ± gives the uncertainty stated by the source.
# B1: Dystrobrevin alpha, residues 235 to 294; numbered along this chain, Q9Y4J8 (parent)
# chain: ENVFHPVECSYCHSESMMGFRYRCQQCHNYQLCQDCFWRGHAGGSHSNQHQMKEYTSWKS
# Variants of: B1
# Experiment: abundance fitness (aPCA) (normalised: wild type 0, dead -1); higher = more abundant; growth selection in yeast, the domain comes from the species named
# Details: Homo sapiens
row,Variant,abundance fitness
1,ENVFHPVECSYCHSESMMGFRYRCQQCHNYQLCQDCFWRGHAGGSHSNQHQMKEYCSWKS,0.076 ± 0.091
2,ENVFHPVECSYCHSESMMGFRYRCQQCHNYQLCQDCFWRGHAGGSHSNQHQMKEYYSWKS,-0.509 ± 0.1
3,ENVFHPVECSYCHSESMMGFRYRCQQCHNYQLCQDCFWRGHAGGSHSNQHQMKEYHSWKS,-0.025 ± 0.1
4,ENVFHPVECSYCHSESMMGFRYRCQQCHNYQLCQDCFWRGHAGGSHSNQHQMKEYDSWKS,0.188 ± 0.076
5,ENVFHPVECSYCHSESMMGFRYRCQQCHNYQLCQDCFWRGHAGGSHSNQHQMKEYESWKS,0.307 ± 0.12
6,ENVFHPVECSYCHSESMMGFRYRCQQCHNYQLCQDCFWRGHAGGSHSNQHQMKEYISWKS,-0.218 ± 0.097
7,ENVFHPVECSYCHSESMMGFRYRCQQCHNYQLCQDCFWRGHAGGSHSNQHQMKEYNSWKS,-0.045 ± 0.19
8,ENVFHPVECSYCHSESMMGFRYRCQQCHNYQLCQDCFWRGHAGGSHSNQHQMKEYVSWKS,-0.137 ± 0.06
9,ENVFHPVECSYCHSESMMGFRYRCQQCHNYQLCQDCFWRGHAGGSHSNQHQMKEYGSWKS,0.024 ± 0.057
10,ENVFHPVECSYCHSESMMGFRYRCQQCHNYQLCQDCFWRGHAGGSHSNQHQMKEYASWKS,0.017 ± 0.061
11,ENVFHPVECSYCHSESMMGFRYRCQQCHNYQLCQDCFWRGHAGGSHSNQHQMKEYFSWKS,-0.642 ± 0.18
12,ENVFHPVECSYCHSESMMGFRYRCQQCHNYQLCQDCFWRGHAGGSHSNQHQMKGYTSWKS,-0.29 ± 0.5
13,ENVFHPVECSYCHSESMMGFRYRCQQCHNYQLCQDCFWRGHAGGSHSNQHQMKTYTSWKS,0.312 ± 0.21
14,ENVFHPVECSYCHSESMMGFRYRCQQCHNYQLCQDCFWRGHAGGSHSNQHQMDEYTSWKS,-0.16 ± 0.12
15,ENVFHPVECSYCHSESMMGFRYRCQQCHNYQLCQDCFWRGHAGGSHSNQHQMCEYTSWKS,-0.137 ± 0.068
16,ENVFHPVECSYCHSESMMGFRYRCQQCHNYQLCQDCFWRGHAGGSHSNQHQMSEYTSWKS,-0.11 ± 0.07
17,ENVFHPVECSYCHSESMMGFRYRCQQCHNYQLCQDCFWRGHAGGSHSNQHQMAEYTSWKS,-0.135 ± 0.083
18,ENVFHPVECSYCHSESMMGFRYRCQQCHNYQLCQDCFWRGHAGGSHSNQHQMVEYTSWKS,0.137 ± 0.065
19,ENVFHPVECSYCHSESMMGFRYRCQQCHNYQLCQDCFWRGHAGGSHSNQHQMMEYTSWKS,-0.108 ± 0.092
20,ENVFHPVECSYCHSESMMGFRYRCQQCHNYQLCQDCFWRGHAGGSHSNQHQMYEYTSWKS,-0.262 ± 0.11
21,ENVFHPVECSYCHSESMMGFRYRCQQCHNYQLCQDCFWRGHAGGSHSNQHQMWEYTSWKS,-0.459 ± 0.089
22,ENVFHPVECSYCHSESMMGFRYRCQQCHNYQLCQDCFWRGHAGGSHSNQHQMIEYTSWKS,-0.111 ± 0.1
23,ENVFHPVECSYCHSESMMGFRYRCQQCHNYQLCQDCFWRGHAGGSHSNQHQMFEYTSWKS,-0.313 ± 0.097

row,Variant,abundance fitness
1,ENVFHPVECSYCHSESMMGFRYRCQQCHNYQLCQDCFWRGHAGGSHSNQHQMHEYTSWKS,-0.167 ± 0.21
2,ENVFHPVECSYCHSESMMGFRYRCQQCHNYQLCQDCFWRGHAGGSHSNQHQMTEYTSWKS,-0.154 ± 0.085
3,ENVFHPVECSYCHSESMMGFRYRCQQCHNYQLCQDCFWRGHAGGSHSNQHQMPEYTSWKS,-0.592 ± 0.13
4,ENVFHPVECSYCHSESMMGFRYRCQQCHNYQLCQDCFWRGHAGGSHSNQHQMREYTSWKS,-0.111 ± 0.053
5,ENVFHPVECSYCHSESMMGFRYRCQQCHNYQLCQDCFWRGHAGGSHSNQHQMGEYTSWKS,-0.248 ± 0.052
6,ENVFHPVECSYCHSESMMGFRYRCQQCHNYQLCQDCFWRGHAGGSHSNQHQMQEYTSWKS,0.026 ± 0.089
7,ENVFHPVECSYCHSESMMGFRYRCQQCHNYQLCQDCFWRGHAGGSHSNQHQMLEYTSWKS,-0.108 ± 0.061
8,ENVFHPVECSYCHSESMMGFRYRCQQCHNYQLCQDCFWRGHAGGSHSNQHQMEEYTSWKS,-0.029 ± 0.078
9,ENVFHPVECSYCHSESMMGFRYRCQQCHNYQLCQDCFWRGHAGGSHSNQHQMKEYTSFKS,-0.021 ± 0.083
10,ENVFHPVECSYCHSESMMGFRYRCQQCHNYQLCQDCFWRGHAGGSHSNQHQMKEYTSCKS,0.003 ± 0.07
11,ENVFHPVECSYCHSESMMGFRYRCQQCHNYQLCQDCFWRGHAGGSHSNQHQMKEYTSNKS,0.232 ± 0.12
12,ENVFHPVECSYCHSESMMGFRYRCQQCHNYQLCQDCFWRGHAGGSHSNQHQMKEYTSEKS,0.297 ± 0.097
13,ENVFHPVECSYCHSESMMGFRYRCQQCHNYQLCQDCFWRGHAGGSHSNQHQMKEYTSHKS,0.105 ± 0.15
14,ENVFHPVECSYCHSESMMGFRYRCQQCHNYQLCQDCFWRGHAGGSHSNQHQMKEYTSDKS,0.284 ± 0.07
15,ENVFHPVECSYCHSESMMGFRYRCQQCHNYQLCQDCFWRGHAGGSHSNQHQMKEYTSAKS,0.258 ± 0.05
16,ENVFHPVECSYCHSESMMGFRYRCQQCHNYQLCQDCFWRGHAGGSHSNQHQMKEYTSQKS,-0.127 ± 0.15
17,ENVFHPVECSYCHSESMMGFRYRCQQCHNYQLCQDCFWRGHAGGSHSNQHQMKEYTSMKS,0.251 ± 0.068
18,ENVFHPVECSYCHSESMMGFRYRCQQCHNYQLCQDCFWRGHAGGSHSNQHQMKEYTSRKS,0.077 ± 0.051
19,ENVFHPVECSYCHSESMMGFRYRCQQCHNYQLCQDCFWRGHAGGSHSNQHQMKEYTSGKS,0.192 ± 0.044
20,ENVFHPVECSYCHSESMMGFRYRCQQCHNYQLCQDCFWRGHAGGSHSNQHQMKEYTSKKS,0.195 ± 0.099
21,ENVFHPVECSYCHSESMMGFRYRCQQCHNYQLCQDCFWRGHAGGSHSNQHQMKEYTSLKS,0.019 ± 0.068
22,ENVFHPVECSYCHSESMMGFRYRCQQCHNYQLCQDCFWRGHAGGSHSNQHQMKEYTSSKS,0.057 ± 0.06
